Reference: paper PMC4132743 (Nucleic Acids Research, 2014)
Residue numbers refer to the chain shown, from its start. Names may count otherwise.

Assays:
[1] = target: T1, DnaT (wt, full length) (Escherichia coli K12, UniProt P0A8J2 1-179); assay: fluorescence polarization; apparent; Hill h=2.0±0.2; Buffer A: 20 mM Tris-HCl pH 7.5, 40 mM NaCl, 5% v/v glycerol, 20 C; FPA 200 nM 5'-FAM DNA, Hill fit; EMSA 30 min at 20 C, gels in 0.5x TBE at 4 C; settings: protein: recombinant; tags: His-MBP removed by TEV; label: 5'-FAM
T1 sequence: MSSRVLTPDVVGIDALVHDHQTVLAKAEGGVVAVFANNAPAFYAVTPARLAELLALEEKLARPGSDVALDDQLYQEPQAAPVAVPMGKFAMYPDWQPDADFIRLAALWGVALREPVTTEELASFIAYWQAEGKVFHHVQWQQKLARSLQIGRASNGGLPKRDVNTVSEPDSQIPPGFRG

[2] = target: the molecule itself; assay: SEC; Superdex 75 or Superdex 200 10/300 GL in buffer A (20 mM Tris-HCl pH 7.5, 40 mM NaCl, 5% glycerol), against molecular mass standards
[3] = target: T1, DnaT (wt, full length); assay: fluorescence polarization; apparent; Hill h=2.5±0.6; Buffer A: 20 mM Tris-HCl pH 7.5, 40 mM NaCl, 5% v/v glycerol, 20 C; FPA 200 nM 5'-FAM DNA, Hill fit; EMSA 30 min at 20 C, gels in 0.5x TBE at 4 C; settings: protein: recombinant; tags: His-MBP removed by TEV; label: 5'-FAM
[4] = target: T1, DnaT (wt, full length); assay: fluorescence polarization; apparent; Hill h=1.8±0.3; Buffer A: 20 mM Tris-HCl pH 7.5, 40 mM NaCl, 5% v/v glycerol, 20 C; FPA 200 nM 5'-FAM DNA, Hill fit; EMSA 30 min at 20 C, gels in 0.5x TBE at 4 C; settings: protein: recombinant; tags: His-MBP removed by TEV; label: 5'-FAM
[5] = target: T1, DnaT (wt, full length); assay: EMSA; 20 uM DNA; Buffer A: 20 mM Tris-HCl pH 7.5, 40 mM NaCl, 5% v/v glycerol, 20 C; FPA 200 nM 5'-FAM DNA, Hill fit; EMSA 30 min at 20 C, gels in 0.5x TBE at 4 C; settings: protein: recombinant; tags: His-MBP removed by TEV
[6] = target: T1, DnaT (wt, full length); assay: fluorescence polarization; apparent; Hill h=2.3±0.2; Buffer A: 20 mM Tris-HCl pH 7.5, 40 mM NaCl, 5% v/v glycerol, 20 C; FPA 200 nM 5'-FAM DNA, Hill fit; EMSA 30 min at 20 C, gels in 0.5x TBE at 4 C; settings: protein: recombinant; tags: His-MBP removed by TEV; label: 5'-FAM
[7] = target: T1, DnaT (wt, full length); assay: fluorescence polarization; apparent; Hill h=1.6±0.2; Buffer A: 20 mM Tris-HCl pH 7.5, 40 mM NaCl, 5% v/v glycerol, 20 C; FPA 200 nM 5'-FAM DNA, Hill fit; EMSA 30 min at 20 C, gels in 0.5x TBE at 4 C; settings: protein: recombinant; tags: His-MBP removed by TEV; label: 5'-FAM
[8] = target: T1, DnaT (wt, full length); assay: fluorescence polarization; apparent; Hill h=1.8±0.2; Buffer A: 20 mM Tris-HCl pH 7.5, 40 mM NaCl, 5% v/v glycerol, 20 C; FPA 200 nM 5'-FAM DNA, Hill fit; EMSA 30 min at 20 C, gels in 0.5x TBE at 4 C; settings: protein: recombinant; tags: His-MBP removed by TEV; label: 5'-FAM
[9] = target: the molecule itself; assay: negative-staining electron microscopy; purified DnaT alone in buffer A (also after DNase I), 0.7% uranyl formate, FEI Tecnai F20
[10] = target: T1, DnaT (wt, full length); assay: fluorescence polarization; apparent; Hill h=2.3±0.3; Buffer A: 20 mM Tris-HCl pH 7.5, 40 mM NaCl, 5% v/v glycerol, 20 C; FPA 200 nM 5'-FAM DNA, Hill fit; EMSA 30 min at 20 C, gels in 0.5x TBE at 4 C; settings: protein: recombinant; tags: His-MBP removed by TEV; label: 5'-FAM
[11] = target: T2, DnaT84-153 (Escherichia coli K12, UniProt P0A8J2 84-153); assay: fluorescence polarization; apparent; Hill h=2.1±0.2; Buffer A: 20 mM Tris-HCl pH 7.5, 40 mM NaCl, 5% v/v glycerol, 20 C; FPA 200 nM 5'-FAM DNA, Hill fit; EMSA 30 min at 20 C, gels in 0.5x TBE at 4 C; settings: protein: recombinant; tags: His-MBP removed by TEV; label: 5'-FAM
T2 sequence: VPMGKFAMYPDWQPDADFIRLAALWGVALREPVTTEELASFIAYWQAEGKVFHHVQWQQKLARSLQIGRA

[12] = target: T3, DnaT84-179 (Escherichia coli K12, UniProt P0A8J2 84-179); assay: fluorescence polarization; apparent; Hill h=2.7±0.2; Buffer A: 20 mM Tris-HCl pH 7.5, 40 mM NaCl, 5% v/v glycerol, 20 C; FPA 200 nM 5'-FAM DNA, Hill fit; EMSA 30 min at 20 C, gels in 0.5x TBE at 4 C; settings: protein: recombinant; tags: His-MBP removed by TEV; chain copies: 2; label: 5'-FAM
T3 sequence: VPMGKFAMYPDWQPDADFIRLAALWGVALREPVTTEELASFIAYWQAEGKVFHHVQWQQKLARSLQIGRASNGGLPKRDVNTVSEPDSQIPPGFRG

[13] = target: T1, DnaT (wt, full length); assay: fluorescence polarization; apparent; Hill h=3.6±0.3; Buffer A: 20 mM Tris-HCl pH 7.5, 40 mM NaCl, 5% v/v glycerol, 20 C; FPA 200 nM 5'-FAM DNA, Hill fit; EMSA 30 min at 20 C, gels in 0.5x TBE at 4 C; settings: protein: recombinant; tags: His-MBP removed by TEV; label: 5'-FAM

B1: 5F-dT15 (ssDNA)
DNA: TTTTTTTTTTTTTTT
Q: B1 was tested. Which Kd [1] did it give?
A: 16.2 ± 1.63 µM

B2: DnaT^84–179 (N-terminal-truncated DnaT) (domain or fragment, Escherichia coli (strain K12), UniProt P0A8J2 84-179, looked up)
chain: T3 sequence
notes: Dimer in solution by size-exclusion chromatography (see the N row); source: E. coli BL21 (DE3), purified (Ni-chelating resin, TEV digestion, HisTrap HP, HiTrap DEAE FF, Superdex 200); not shown: His, N-terminal, cleaved; MBP, N-terminal, cleaved
Q: How did the “stoichiometry N” value [2] turn out when B2 was run?
A: 2

B3: 5F-dA15 (ssDNA)
DNA: AAAAAAAAAAAAAAA
Q: Which Kd [3] does the source give for B3 here?
A: 46.7 ± 6.87 µM

B4: 5F-d(TGG)10 (ssDNA)
DNA: TGGTGGTGGTGGTGGTGGTGGTGGTGGTGG
Q: B4 was tested. Which Kd [4] did it give?
A: 2.76 ± 0.28 µM

B5: dT10 (ssDNA)
DNA: TTTTTTTTTT
Q: Does B5 bind [5]?
A: binds

B6: 5F-d(TGGG)7 (ssDNA)
DNA: TGGGTGGGTGGGTGGGTGGGTGGGTGGG
Q: With B6 as the binder, how does the Kd [6] read?
A: 0.597 ± 0.02 µM

B7: DnaT^84–153 (N- and C-terminal-truncated DnaT, recombinant fragment) (domain or fragment, Escherichia coli (strain K12), UniProt P0A8J2 84-153, looked up)
chain: T2 sequence
notes: as for B2
Q: How did the “stoichiometry N” value [2] turn out when B7 was run?
A: 2

B8: 5F-d(TG)15 (ssDNA)
DNA: TGTGTGTGTGTGTGTGTGTGTGTGTGTGTG
Q: For B8, which Kd [7] is on record?
A: 1.3 ± 0.11 µM

B9: 5F-dA30 (ssDNA)
DNA: AAAAAAAAAAAAAAAAAAAAAAAAAAAAAA
Q: How did the Kd [8] turn out when B9 was run?
A: 39.2 ± 3.85 µM

B10: DnaT F135A (natural protein, Escherichia coli (strain K12), UniProt P0A8J2 1-179, looked up)
chain: T1 sequence with F135A
notes: E. coli K12 DnaT, made from the wt-DnaT vector by site-directed mutagenesis; source: E. coli BL21 (DE3), purified as the wild type; not shown: His, N-terminal, cleaved; MBP, N-terminal, cleaved
Q: Does B10 bind [2]?
A: binds

B11: DnaT (full-length, wild type) (natural protein, Escherichia coli (strain K12), UniProt P0A8J2 1-179, looked up)
chain: T1 sequence
notes: E. coli K12 DnaT, amplified from genomic DNA; also called wt-DnaT; DnaT-FL; source: E. coli BL21 (DE3), purified (Ni-chelating resin, TEV digestion, HisTrap HP, HiTrap DEAE FF, Superdex 200); not shown: His, N-terminal, cleaved; MBP, N-terminal, cleaved
Q: Does B11 bind [9]?
A: binds

B12: DnaT R146A (natural protein, Escherichia coli (strain K12), UniProt P0A8J2 1-179, looked up)
chain: T1 sequence with R146A
notes: as for B10
Q: Does B12 bind [2]?
A: binds

B13: DnaT Y127A (natural protein, Escherichia coli (strain K12), UniProt P0A8J2 1-179, looked up)
chain: T1 sequence with Y127A
notes: as for B10
Q: Does B13 bind [2]?
A: binds

B14: DnaT W128A (natural protein, Escherichia coli (strain K12), UniProt P0A8J2 1-179, looked up)
chain: T1 sequence with W128A
notes: as for B10
Q: Does B14 bind [2]?
A: binds

B15: DnaT Y127A/W128A double mutant (natural protein, Escherichia coli (strain K12), UniProt P0A8J2 1-179, looked up)
chain: T1 sequence with Y127A, W128A
notes: as for B10
Q: Does B15 bind [2]?
A: binds

B16: DnaT K133A (natural protein, Escherichia coli (strain K12), UniProt P0A8J2 1-179, looked up)
chain: T1 sequence with K133A
notes: as for B10
Q: Does B16 bind [2]?
A: binds

B17: DnaT K143A (natural protein, Escherichia coli (strain K12), UniProt P0A8J2 1-179, looked up)
chain: T1 sequence with K143A
notes: as for B10
Q: Does B17 bind [2]?
A: binds

B18: 5F-d(CA)15 (ssDNA)
DNA: CACACACACACACACACACACACACACACA
Q: Which Kd [10] does the source give for B18 here?
A: 31.5 ± 3.6 µM

B19: 5F-dT30 (ssDNA)
DNA: TTTTTTTTTTTTTTTTTTTTTTTTTTTTTT
Q: With B19 as the binder, how does the Kd [11] read?
A: 27.1 ± 2.3 µM

Q: What about the Kd [12] of the same binder?
A: 9.87 ± 0.32 µM

Q: What about the Kd [13] of the same binder?
A: 12.9 ± 0.57 µM
